US20240076406A1, “SINGLE DOMAIN ANTIBODIES TARGETING CA-IX AS WELL AS COMPOSITIONS COMPRISING SAME” (National Research Council of Canada, priority 2021, published 2024)
Read-outs that look alike come from different tables or passages of the source.

B1: sdCA9-1-VHH: llama single domain antibody (VHH) binding CA-IX catalytic domain, amino acid sequence SEQ ID NO: 1 (protein)
VHH: QVQLVESGGGLVQAGGSLRLSCAASGFTFDDWAIGWFRQAPGKEREGVSCISKRHGTTHYADSVKGRFTISSDNAKNTVYLRMNGLKPEDTAVYYCAASSWGSCTVATMRDVDRYDYDYWGQGTQVTVSS
modifications: Amino acid sequence for sdCA9-1- VHH
B2: sdCA9-3-VHH: llama single domain antibody (VHH) binding CA-IX, amino acid sequence SEQ ID NO: 9 (protein)
VHH: QVQLVESGGGLVQAGDSLRLSCAASGGTFSRYGMGWFRQAPGKEREFVAAISGTGLNTYYMDSVKGRFTISRDNAENTVYLQMNSLKPEDTAVYYCARDRGGVEYDYWGQGTQVTVSS
modifications: A 118 amino acid sequence for CA9-3-VHH
B3: sdCA9-2-VHH: llama single domain antibody (VHH) binding CA-IX catalytic domain, amino acid sequence SEQ ID NO: 5 (protein)
VHH: QVKLEESGGDLVQPGGSLRLSCAASGFTLDYYAIGWFRQAPGKEREGVSCFSSVDGSTYYADSVKGRFTISRDNAKNMVYLQMNSLKPEDTAIYYCAAELYGELGVATVQAMCRLTTPGGDYWGQGTQVTVSS
modifications: Amino acid sequence for sdCA9-2-VHH

Experiments:
[1] = system: cyno CA-IX; test: ELISA species cross reactivity, cynomolgus monkey CA-IX; format: binding; settings: 500 nM sdCA9-VHH
Method: (§1) Binding above background was measured in an ELISA assay for the binding of 500 nM of sdCA9-VHH antibodies to human CA-II, CA-IV, CA-IX, CA-XII and CA-XIV (isoform cross reactivity, upper panel), then CA-IX for mouse, human, cynomolgus monkey and dog (species cross reactivity, lower panel). (sdCA9-1-VHH ( ? ) and sdCA9-2-VHH ( ? )
(§2) Cross reactivity and CA-IX specificity. Binding specificity and species cross reactivity of two sdAb were tested in an ELISA assay using purified proteins for human, mouse, cynomolgus monkey and dog CA-IX.

[2] = system: hCA-IX negative parental 67NR spheroids; test: Spheroid growth inhibition, parental 67NR; format: cell-based, mouse; settings: hCA-IX negative cells
Source text: (§3) Spheroid growth inhibition.

[3] = molecular target: T1, dimeric CA-IX (Homo sapiens, UniProt Q16790); test: SPR binding affinity, VHH format, dimeric CA-IX; settings: SPR data (FIG. 3A); monomer or dimer not specified
T1 construct: to the dimeric extracellular domain (ECD) of hCA-IX
Method: FIG. 3A is a graph showing the binding kinetics determined by surface plasmon resonance (SPR) for 3 CA-IX single domain antibodies (sdCA9-1, -2, -3-VHH) to the dimeric extracellular domain (ECD) of hCA-IX.
In vitro binding affinity/SPR. To evaluate the binding affinity (KD) of the VHH only format of the […] single domain antibodies, CA-IX monomer and dimer were immobilized on SA sensor chip (GE Healthcare) and serial dilutions of the sdAbs were injected over the surface (FIG. 3A). […] The two single domain antibodies sdCA9-1-VHH and sdCA9-2-VHH were selected for further characterizations.

[4] = system: 67NR^hCA-IX derived spheroids; test: Spheroid growth inhibition, 67NR^hCA-IX; format: cell-based, mouse; settings: for spheroid growth, different concentrations: monitored for 8 days, compared with 67NR derived spheroids
Source text: as §3

[5] = molecular target: T2, purified hCA-IX ECD dimer (Homo sapiens, UniProt Q16790); test: In vitro rhCA-IX enzyme activity inhibition (4Mu-Ac hydrolysis); format: biochemical; settings: for IC50: 4Mu-Ac substrate; for inhibition of hCA-IX enzyme activity, in words: hCA-IX dimer, 4Mu-Ac hydrolysis
T2 construct: in vitro enzyme activity assay using purified hCA-IX ECD dimer
Method: In vitro rhCA-IX enzyme activity inhibition. In order to examine the functional consequence of the binding of the two sdCA9-VHH antibodies to hCA-IX ECD, antibodies were tested in an in vitro enzyme activity assay using purified hCA-IX ECD dimer and 4-Methylumbelliferyl acetate (4Mu-Ac) as substrate.

[6] = molecular target: mouse CA-IX (Mus musculus, UniProt Q8VHB5); test: ELISA species cross reactivity, mouse CA-IX; format: binding; settings: 500 nM sdCA9-VHH
mouse CA-IX, sequence (Q8VHB5 32-437): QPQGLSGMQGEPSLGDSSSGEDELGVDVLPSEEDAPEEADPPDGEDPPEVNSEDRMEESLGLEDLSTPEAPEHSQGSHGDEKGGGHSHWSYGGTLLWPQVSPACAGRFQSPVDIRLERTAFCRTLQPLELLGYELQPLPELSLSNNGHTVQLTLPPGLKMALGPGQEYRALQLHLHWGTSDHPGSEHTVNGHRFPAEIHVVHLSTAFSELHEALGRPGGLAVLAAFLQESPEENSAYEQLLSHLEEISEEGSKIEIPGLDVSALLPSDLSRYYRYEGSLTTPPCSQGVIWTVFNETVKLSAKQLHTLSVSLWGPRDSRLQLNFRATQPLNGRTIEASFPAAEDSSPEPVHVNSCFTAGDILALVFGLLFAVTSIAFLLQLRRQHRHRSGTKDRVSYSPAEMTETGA
Method: as §1, §2

[7] = molecular target: dog CA-IX (Canis lupus familiaris, UniProt A0A8I3NCN1); test: ELISA species cross reactivity, dog CA-IX; format: binding; settings: 500 nM sdCA9-VHH
dog CA-IX, sequence (A0A8I3NCN1 38-461): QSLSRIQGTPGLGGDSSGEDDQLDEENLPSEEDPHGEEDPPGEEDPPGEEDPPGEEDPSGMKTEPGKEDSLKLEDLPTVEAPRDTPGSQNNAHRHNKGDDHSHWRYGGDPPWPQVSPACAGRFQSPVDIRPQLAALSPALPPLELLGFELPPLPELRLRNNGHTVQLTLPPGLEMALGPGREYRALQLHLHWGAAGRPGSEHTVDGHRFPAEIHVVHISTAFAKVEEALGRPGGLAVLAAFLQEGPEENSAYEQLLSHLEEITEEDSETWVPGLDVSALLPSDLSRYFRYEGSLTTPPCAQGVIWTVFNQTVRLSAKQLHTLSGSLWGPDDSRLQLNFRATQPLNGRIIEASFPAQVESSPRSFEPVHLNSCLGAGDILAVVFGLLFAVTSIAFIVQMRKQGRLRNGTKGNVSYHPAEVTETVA
Method: as §1, §2

[8] = molecular target: human CA-IX (Homo sapiens, UniProt Q16790); test: ELISA species cross reactivity, human CA-IX; format: binding; settings: 500 nM sdCA9-VHH
Method: as §1, §2

[9] = [inhibitor] vs. normalized response - variable slope
[10] = [inhibitor] vs. normalized response - variable slope, read-out: IC50 (best fit value)

Molecule	binding to cyno CA-IX [1]	effect on parental 67NR spheroids [2]	binding to CA-IX by SPR, in words [3]	spheroid growth, different concentrations [4]	HillSlope (best fit value) [5, 9]	IC50 [5, 10] [nM]	inhibition of hCA-IX enzyme activity, in words [5]	IC50 ([5]; hCA-IX-ECD dimer, read-out: IC50 values) [nM]	binding to mouse CA-IX [6]	binding to dog CA-IX [7]	binding to human CA-IX [8]	growth of spheroids over time ([4]; 100 μg/mL)
B1	binds	hCA-IX non-specific phenotype	bind with high affinity	seemed not to be specific	−0.1194	111	only partially	~100	binds	binds	binds	–
B2	–	–	binds with high affinity but less so than the other two	–	–	–	–	–	–	–	–	–
B3	selectively binds	–	bind with high affinity	inhibited spheroid growth in a dose-dependent manner	−0.2974	48.4	inhibited the hCA-IX enzyme activity to similar levels achieved by SMI U104	–	–	–	selectively binds	specifically inhibits the growth of 67NR^hCA-IX spheroids over time
